Assay results published in the supplement of paper PMC9170038.

Tested on: MS2 coat protein
Assay: apparent KD of MS2 coat protein; designed switch direction (-1 OFF switch, 1 ON switch): -1; higher = weaker reporter binding
Outline: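 Designed RNA switches were transcribed on Illumina chips by stalled E. coli RNA polymerase and titrated with SNAP-549-labelled MS2 coat protein from 0.7 or 1.5 nM, doubling to 3 µM. Step length ran from 0.8–1.5 h at the lowest concentration to 10–20 min at the highest. The apparent KD is the median over clusters for each design, from curve-fitted normalised cluster fluorescence.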

[1] = input ligand: microRNA oligo, concentration not stated
[2] = Eterna round: R95, input ligand: FMN 200 uM
[3] = Eterna round: R95, input ligand: microRNA oligo, concentration not stated
[4] = Eterna round: R95, input ligand: none

## UGAUCUAGCGGAGGAUAUACAUGAGGAUCACCCAUGUAGAUAACAUGACCGUAGUCGUGUAUUGUGUAGAAGGCCGCUAGAUCU [JL ENG2 3.66] (Eterna round: R96, puzzle: Exclusion NG 2)
Input ligand: FMN 200 uM
  apparent KD of MS2 coat protein: 40.8 nM
[1]
  apparent KD of MS2 coat protein: 14.3 nM
Input ligand: none
  apparent KD of MS2 coat protein: 18.8 nM

## ACAAGCUCUGUGGGUGGUGACAUGAGGAUCACCCAUGUUUUGCUCGUCUUGUGCCGGGCCCGGCGCCCGGGCCCGGC [-40.5, -69.4, A 8%] (Eterna round: R97, puzzle: Sensor, turn-off variant 1)
Input ligand: FMN 200 uM
  apparent KD of MS2 coat protein: 261 nM
Input ligand: none
  apparent KD of MS2 coat protein: 715 nM

## UGCCGUUUAGGAUAUACAUGAGGAUCACCCAUGUGACACACAUAUUUUACAAAACCAUGUAGAAGGAAACGGCA [E3-1.0] (Eterna round: R96, puzzle: Exclusion 3)
Input ligand: FMN 200 uM
  apparent KD of MS2 coat protein: 542 nM
[1]
  apparent KD of MS2 coat protein: 95.4 nM
Input ligand: none
  apparent KD of MS2 coat protein: 114 nM

## UCUCGCAGGCAAGGAUAUCCUACAUUGUUCUGGCCCGGGCAUGCUACAUGAGGAUCACCCAUGUGGGAGAAGGUGCGCCACGGC [Design 32] (Eterna round: R96, puzzle: Exclusion NG 2)
Input ligand: FMN 200 uM
  apparent KD of MS2 coat protein: 47.9 nM
[1]
  apparent KD of MS2 coat protein: 36 nM
Input ligand: none
  apparent KD of MS2 coat protein: 35.4 nM

## GAUAAAGGGCAGGAUAUGGCUGGAAAAUAUCCGCCAGAAGGGCCCACAUGAGGAUCACCCAUGUGUGGUCCGCG [Lere] (puzzle: Exclusion 6)
[2]
  apparent KD of MS2 coat protein: 52.3 nM
[3]
  apparent KD of MS2 coat protein: 17.3 nM
[4]
  apparent KD of MS2 coat protein: 19.1 nM

## ACAUGAGGAUCACCCAUGUAAACAUAAUGGCUGAUGUAGAGUCAGGAUAUGUGUGGCUAACAAUCGCAGAAGGGACAAGACUGG [Deportation 31 - Jieux - Exclusion NG 3] (Eterna round: R96, puzzle: Exclusion NG 3)
Input ligand: FMN 200 uM
  apparent KD of MS2 coat protein: 23.5 nM
[1]
  apparent KD of MS2 coat protein: 19.2 nM
Input ligand: none
  apparent KD of MS2 coat protein: 31.8 nM

## GUCAUCAAACAUGGGAUAAACAUGAGGAUCACCCAUGUAUACAAGUUUUUUGCUCGUCUUAUAAUAAGUUUGAUGAC [Antenna 6 - Jieux - Sensor, turn-off variant 1] (Eterna round: R97, puzzle: Sensor, turn-off variant 1)
Input ligand: FMN 200 uM
  apparent KD of MS2 coat protein: 16.4 nM
Input ligand: none
  apparent KD of MS2 coat protein: 15.3 nM

## ACAUGAGGAUCACCCAUGUCCGUCUGGUCUGUCUCGGCUGUCGAGGAUAUAGCUCGGUAUCCGCGCUAGAAGGCGGGAGUCGGC [Aenatbe mod 96] (Eterna round: R96, puzzle: Exclusion NG 3)
Input ligand: FMN 200 uM
  apparent KD of MS2 coat protein: 26.4 nM
[1]
  apparent KD of MS2 coat protein: 17.3 nM
Input ligand: none
  apparent KD of MS2 coat protein: 31.9 nM

## UCGUUCCGUGUAGGAUAUUGGCCUUCUCUGGGCCGAGAAGGACAUGAGGAUCACCCAUGUAUGUUAUUAUCACGCGUGGCGCAU [Design 84] (Eterna round: R96, puzzle: Exclusion NG 1)
Input ligand: FMN 200 uM
  apparent KD of MS2 coat protein: 181 nM
[1]
  apparent KD of MS2 coat protein: 22.9 nM
Input ligand: none
  apparent KD of MS2 coat protein: 25.1 nM

## UUGGACGGAGGAUAUGCAGCGAGUAAUACGAUCGAUCCAAAACAUGAGGAUCACCCAUGUAGAAGGCUGACCAA [Eternabot (L1) Solution 11] (Eterna round: R97, puzzle: Exclusion 2)
Input ligand: FMN 200 uM
  apparent KD of MS2 coat protein: 174 nM
Input ligand: none
  apparent KD of MS2 coat protein: 71.2 nM

## AAACCUGCCCAUGACCGCAAGCUUUUUGCUUGUCUUACCACAUGAGGAUCACCCAUGUGACAUGGGCUCCUUAUAAA [Usteorrila] (puzzle: Sensor v3, turn-off variant 2)
[2]
  apparent KD of MS2 coat protein: 12.7 nM
[3]
  apparent KD of MS2 coat protein: 9.84 nM
[4]
  apparent KD of MS2 coat protein: 11.5 nM

## GUUGUAUGAGGAUAUACAUGAGGAUCACCCAUGUGUGUUGUGAACGACGUACGUUUAUGUAGAAGGCGUGCGGC [-24.9, -21.8 kcal, 24% A] (Eterna round: R97, puzzle: Exclusion 3)
Input ligand: FMN 200 uM
  apparent KD of MS2 coat protein: 18.2 nM
Input ligand: none
  apparent KD of MS2 coat protein: 17.9 nM

## AGAUGUAGAUACCGGUCCUACAUGAGGAUCACCCAUGUAGCUAGACGUGCGGGCGGCGCUCGUCGGACUACCAGUAG [salish99_TOv1_r3_098] (puzzle: Sensor v3, turn-off variant 1)
[2]
  apparent KD of MS2 coat protein: 39.4 nM
[3]
  apparent KD of MS2 coat protein: 42.8 nM
[4]
  apparent KD of MS2 coat protein: 59.7 nM

## GGUUGGCGAGGAUAUACAUGAGGAUCACCCAUGUGAGAGAAUAAAGUGAGAAAGAAAAGUAGAAGGCGCUGACG [Mat - Exclusion 3 - Mod of Salish D49] (puzzle: Exclusion 3)
[2]
  apparent KD of MS2 coat protein: 728 nM
[3]
  apparent KD of MS2 coat protein: 56.9 nM
[4]
  apparent KD of MS2 coat protein: 43.3 nM

## AUAAUGUGAGGAUAUCAGUCGACUAGCCUCGGCUAGUCGACUGAGAAGGUACAUGAGGAUCACCCAUGUAGAUC [E4/20-A2] (Eterna round: R97, puzzle: Exclusion 4)
Input ligand: FMN 200 uM
  apparent KD of MS2 coat protein: 84.3 nM
Input ligand: none
  apparent KD of MS2 coat protein: 26.4 nM

## AACAUGUCAGGAUAUAUGACAUGGCUCUUCGGAGCAAGCUCAUAGAAGGGACAUGAGGAUCACCCAUGUAGAGC [Ex4-3: 21] (puzzle: Exclusion 4)
[3]
  apparent KD of MS2 coat protein: 21.7 nM

## CCCAGUUAGGAAGGAUAUUGUACAUGAGGAUCACCCAUGUAAUAAAUGAGGAUCACGGAUGUAUACAAGAAGGUCCGGAUAGGC [Ostracism 9 - Jieux - Exclusion NG 2] (Eterna round: R96, puzzle: Exclusion NG 2)
[1]
  apparent KD of MS2 coat protein: 59.3 nM

## GUUAAGGUAGGAUAUACGAUAAUAUAGGGUAGAAUAUUAACACAUGAGGAUCACCCAUGUAGAAGGACCAAUUG [Mat - Exclusion 2 - Mod of my Tesla design - D51] (puzzle: Exclusion 2)
[2]
  apparent KD of MS2 coat protein: 38.7 nM
[3]
  apparent KD of MS2 coat protein: 21.1 nM
[4]
  apparent KD of MS2 coat protein: 22.8 nM

## UGAGCAACAGGAUAUAUAUGGCGACCGUGAGGUCGAAGGUUACAUGAGGAUCACCCAUGUAGAAGGGUUGUUCU [Mat - Exclusion 2 - JL Mod - D16] (Eterna round: R97, puzzle: Exclusion 2)
Input ligand: FMN 200 uM
  apparent KD of MS2 coat protein: 279 nM
Input ligand: none
  apparent KD of MS2 coat protein: 102 nM

## AAUCCACAUGAGGAUCACCCAUGUGAGGAUAUGAUACUAUGUACUUCGGUACAUAGUAUCAGAAGGCACAUAAA [Ex1-3: 51] (puzzle: Exclusion 1)
[3]
  apparent KD of MS2 coat protein: 28.4 nM

## CUAGCGAUUGUAGGAUAUCGGACUGUUUCAGUCUGAGAAGGACAUGAGGAUCACCCAUGUGAAGCAACGUGAGUUGCACGCUAG [JL ENG1 3.83] (Eterna round: R96, puzzle: Exclusion NG 1)
Input ligand: FMN 200 uM
  apparent KD of MS2 coat protein: 47.9 nM
[1]
  apparent KD of MS2 coat protein: 13.8 nM
Input ligand: none
  apparent KD of MS2 coat protein: 22 nM

## AAAAGGUCAGGAUAUCGGCGCGGUUGGGAGGCAGGUCCGCGCGAGAAGGGACAUGAGGAUCACCCAUGUUAAAA [Excls4-III] (puzzle: Exclusion 4)
[3]
  apparent KD of MS2 coat protein: 20.7 nM

## UCGCAGUUAGGAUAUACAUGAGGAUCACCCAUGUGGCUCCGGACCGGCAACGAAUCACGUAGAAGGGACUGCAG [Eternabot (Original) Solution 24] (Eterna round: R97, puzzle: Exclusion 3)
Input ligand: FMN 200 uM
  apparent KD of MS2 coat protein: 20.4 nM
Input ligand: none
  apparent KD of MS2 coat protein: 16.8 nM

## ACAAUGUUAGGAUAUCUGACAACUAGCCUCGGCUAGUCGAAAGAGAAGGAACAUGAGGAUCACCCAUGUAGAUC [EX4 #71] (Eterna round: R97, puzzle: Exclusion 4)
Input ligand: FMN 200 uM
  apparent KD of MS2 coat protein: 523 nM
Input ligand: none
  apparent KD of MS2 coat protein: 146 nM

## CUUAGCCUAAAAUCACGCAAGCUUUUUGCUUGUCUAAAGACAUGAGGAUCACCCAUGUCCGGGCUGAACUUAUGGAA [Atqusoen] (puzzle: Sensor v3, turn-off variant 2)
[2]
  apparent KD of MS2 coat protein: 17.7 nM
[3]
  apparent KD of MS2 coat protein: 18.1 nM
[4]
  apparent KD of MS2 coat protein: 16 nM

## CCAGGCUGUGUGAGGAUAUGCUGGUCCUUGGAUCAGCAGAAGGCACAUGAGGAUCACCCAUGUGAAAAGCUUGG [Mat - Exclusion 4 - JL Mod - D91] (puzzle: Brourd's mod of Exclusion 4)
[3]
  apparent KD of MS2 coat protein: 16.2 nM

## UCACGGGAUUGAGGAUAUAUAUUAAUUUUUACAAUAGAAGGCAAAUUGUUAGUUUUUUCACUAUACAUGAGGAUCACCCAUGUU [JR_ExcBG1_Sub079] (Eterna round: R96, puzzle: Exclusion NG 1)
[1]
  apparent KD of MS2 coat protein: 18.9 nM

## UUCAGUCUAGAGGAUAUGCUGGAUUAAUAUCUGGCAGAAGGCUGGACAUGAGGAUCACCCAUGUAAAUACUACC [Omei Ex6 A5] (Eterna round: R97, puzzle: Exclusion 6)
Input ligand: FMN 200 uM
  apparent KD of MS2 coat protein: 356 nM
Input ligand: none
  apparent KD of MS2 coat protein: 68.3 nM

## CAUACACAUGAGGAUCACCCAUGUGAGGAUAUGCGUACGUUGUCCGUAGGCGACGUGCGCAGAAGGCGCUUGGU [JL-ex1-3.18 Eli mod] (puzzle: Exclusion 1)
[3]
  apparent KD of MS2 coat protein: 49 nM

## UAAUACAAGUAAAGAUCCUACAUGAGGAUCACCCAUGUGCUCGUCUUGUAAAGUACUAUCACGAAAGUGAUAGUACU [Mat - Sensor v3 - turn-off var 1 - Eli Mod - D86] (puzzle: Sensor v3, turn-off variant 1)
[2]
  apparent KD of MS2 coat protein: 30.3 nM
[3]
  apparent KD of MS2 coat protein: 22 nM
[4]
  apparent KD of MS2 coat protein: 44.8 nM

## GGAUCUUGGGUCAGGAUAUGCUGGUAUUUUUGCCAGCAGAAGGGACAUGAGGAUCACCCAUGUUCUUGGUUUUG [Magic-15] (puzzle: Brourd's mod of Exclusion 4)
[3]
  apparent KD of MS2 coat protein: 11 nM
